How the values were obtained:
PSMB4 (human) = PSMB4 (human) (UniProt P28070); experiment: IgG control IP from lysate of C-FLAG B3GNT2 cells, mass spectrometry
RPL34 (human) = RPL34 (human) (UniProt P49207); experiment: as above
RRBP1 (human) = RRBP1 (human) (UniProt Q9P2E9); experiment: as above
IFI16 (human) = IFI16 (human) (UniProt Q16666); experiment: as above
EEF2 (human) = EEF2 (human) (UniProt P13639); experiment: as above
IPO7 (human) = IPO7 (human) (UniProt O95373); experiment: as above
TUBA1C (human) = TUBA1C (human) (UniProt Q9BQE3); experiment: as above
SLC25A22 (human) = SLC25A22 (human) (UniProt Q9H936); experiment: as above
ERP44 (human) = ERP44 (human) (UniProt Q9BS26); experiment: as above
NTPCR (human) = NTPCR (human) (UniProt Q9BSD7); experiment: as above
PGAM5 (human) = PGAM5 (human) (UniProt Q96HS1); experiment: as above
UBTF (human) = UBTF (human) (UniProt P17480); experiment: as above
ERP29 (human) = ERP29 (human) (UniProt P30040); experiment: as above
HDGFL2 (human) = HDGFL2 (human) (UniProt Q7Z4V5); experiment: as above
PSMB6 (human) = PSMB6 (human) (UniProt P28072); experiment: as above
STAU1 (human) = STAU1 (human) (UniProt O95793); experiment: as above
ELOC (human) = ELOC (human) (UniProt Q15369); experiment: as above
PXN (human) = PXN (human) (UniProt P49023); experiment: as above
AIFM1 (human) = AIFM1 (human) (UniProt O95831); experiment: as above
KTN1 (human) = KTN1 (human) (UniProt Q86UP2); experiment: as above
ATAD3A (human) = ATAD3A (human) (UniProt Q9NVI7); experiment: as above
LDHA (human) = LDHA (human) (UniProt P00338); experiment: as above
TRAFD1 (human) = TRAFD1 (human) (UniProt O14545); experiment: as above
HSP90AB1 (human) = HSP90AB1 (human) (UniProt P08238); experiment: as above
ABCD1 (human) = ABCD1 (human) (UniProt P33897); experiment: as above
RPL15 (human) = RPL15 (human) (UniProt P61313); experiment: as above
PSMC2 (human) = PSMC2 (human) (UniProt P35998); experiment: as above
RPL17 (human) = RPL17 (human) (UniProt P18621); experiment: co-IP with IgG control, lysate of N-FLAG B3GNT2 cells, mass spectrometry
MMS19 (human) = MMS19 (human) (UniProt Q96T76); experiment: as above
TTC13 (human) = TTC13 (human) (UniProt Q8NBP0); experiment: as above
TPM2 (human) = TPM2 (human) (UniProt P07951); experiment: as above
PUF60 (human) = PUF60 (human) (UniProt Q9UHX1); experiment: as above
UniProt P01837.1 = experiment: as above
RPS24 (human) = RPS24 (human) (UniProt P62847); experiment: as above
P4HA2 (human) = P4HA2 (human) (UniProt O15460); experiment: as above
RPS20 (human) = RPS20 (human) (UniProt P60866); experiment: as above
PLOD1 (human) = PLOD1 (human) (UniProt Q02809); experiment: as above
CPT1A (human) = CPT1A (human) (UniProt P50416); experiment: as above
SRSF6 (human) = SRSF6 (human) (UniProt Q13247); experiment: as above

## IgG control (Millipore Sigma 12-371) (antibody)
PSMB4 (human)
  co-IP mass spectrometry count: 0
RPL34 (human)
  co-IP mass spectrometry count: 0
RRBP1 (human)
  co-IP mass spectrometry count: 2
IFI16 (human)
  co-IP mass spectrometry count: 0
EEF2 (human)
  co-IP mass spectrometry count: 0
IPO7 (human)
  co-IP mass spectrometry count: 0
TUBA1C (human)
  co-IP mass spectrometry count: 14
SLC25A22 (human)
  co-IP mass spectrometry count: 0
ERP44 (human)
  co-IP mass spectrometry count: 0
NTPCR (human)
  co-IP mass spectrometry count: 0
PGAM5 (human)
  co-IP mass spectrometry count: 0
UBTF (human)
  co-IP mass spectrometry count: 0
ERP29 (human)
  co-IP mass spectrometry count: 0
HDGFL2 (human)
  co-IP mass spectrometry count: 0
PSMB6 (human)
  co-IP mass spectrometry count: 0
STAU1 (human)
  co-IP mass spectrometry count: 0
ELOC (human)
  co-IP mass spectrometry count: 0
PXN (human)
  co-IP mass spectrometry count: 0
AIFM1 (human)
  co-IP mass spectrometry count: 0
KTN1 (human)
  co-IP mass spectrometry count: 0
ATAD3A (human)
  co-IP mass spectrometry count: 0
LDHA (human)
  co-IP mass spectrometry count: 0
TRAFD1 (human)
  co-IP mass spectrometry count: 0
HSP90AB1 (human)
  co-IP mass spectrometry count: 2
ABCD1 (human)
  co-IP mass spectrometry count: 0
RPL15 (human)
  co-IP mass spectrometry count: 2
PSMC2 (human)
  co-IP mass spectrometry count: 0
RPL17 (human)
  co-IP/MS count, N-term IgG: 0
MMS19 (human)
  co-IP/MS count, N-term IgG: 0
TTC13 (human)
  co-IP/MS count, N-term IgG: 0
TPM2 (human)
  co-IP/MS count, N-term IgG: 0
PUF60 (human)
  co-IP/MS count, N-term IgG: 5
UniProt P01837.1
  co-IP/MS count, N-term IgG: 87
RPS24 (human)
  co-IP/MS count, N-term IgG: 4
P4HA2 (human)
  co-IP/MS count, N-term IgG: 0
RPS20 (human)
  co-IP/MS count, N-term IgG: 4
PLOD1 (human)
  co-IP/MS count, N-term IgG: 0
CPT1A (human)
  co-IP/MS count, N-term IgG: 0
SRSF6 (human)
  co-IP/MS count, N-term IgG: 3
